Series [1] addresses T1, Pho4 (S. cerevisiae, UniProt P07270 1-312).
T1 sequence: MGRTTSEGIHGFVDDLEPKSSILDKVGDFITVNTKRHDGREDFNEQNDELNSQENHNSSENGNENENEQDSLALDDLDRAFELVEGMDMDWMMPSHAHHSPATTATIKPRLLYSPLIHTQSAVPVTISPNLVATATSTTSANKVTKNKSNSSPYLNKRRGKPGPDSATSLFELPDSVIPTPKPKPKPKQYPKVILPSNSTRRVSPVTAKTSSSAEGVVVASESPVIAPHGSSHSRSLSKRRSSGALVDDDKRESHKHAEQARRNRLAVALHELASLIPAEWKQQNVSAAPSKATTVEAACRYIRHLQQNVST
Nature of the series: STAMMP.

In series [2] the target is T2, MAX (Homo sapiens, UniProt P61244 1-160). Nature of the series: MITOMI.
T2 sequence (P61244 whole entry): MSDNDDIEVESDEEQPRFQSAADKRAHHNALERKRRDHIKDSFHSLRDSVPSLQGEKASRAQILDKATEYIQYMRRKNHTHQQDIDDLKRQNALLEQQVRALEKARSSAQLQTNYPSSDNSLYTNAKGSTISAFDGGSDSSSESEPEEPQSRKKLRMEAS
Series [3] addresses T2, MAX. Nature of the series: MITOMI. The source holds these as a separate data set.
Series [4] addresses T1, Pho4. Put plainly: MITOMI.

The values below come from doi:10.1101/2022.05.24.493321.

Like-named read-outs stand apart in the source and are kept apart here.

B1: Motif + random 1 (dsDNA)
DNA 1: CGCACAGTCACTTAACGTCACGTGACCGGGGTATTTCAGGTCCGGCGGTATGAC
DNA 2: GTCATACCGCCGGACCTGAAATACCCCGGTCACGTGACGTTAAGTGACTGTGCG
In the case of B1, the binding result in series [1] is reported as “binds”.

B2: GT/AC 15bp (dsDNA)
DNA 1: CGCCCCAGCACTGCCAAGCCGACGTTAAAACGGGTTGCTTCATCAATCTGTGTGTGTGTGTGTGTCACGTGACACACACACACACACATATCGGCACTTGCGCTTGAGTGCATCGAATAGTTCGGTTTATGAGCGTCCGGCGGTATGAC
DNA 2: GTCATACCGCCGGACGCTCATAAACCGAACTATTCGATGCACTCAAGCGCAAGTGCCGATATGTGTGTGTGTGTGTGTCACGTGACACACACACACACACAGATTGATGAAGCAACCCGTTTTAACGTCGGCTTGGCAGTGCTGGGGCG
For B2, the binding result in series [2] is “binds”.

B3: ATGC/ATGC 60bp (dsDNA)
DNA 1: CGCATGCATGCATGCATGCATGCATGCATGCATGCATGCATGCATGCATGCATGCATGCATGCGTCACGTGACGCATGCATGCATGCATGCATGCATGCATGCATGCATGCATGCATGCATGCATGCATGCATCGTCCGGCGGTATGAC
DNA 2: GTCATACCGCCGGACGATGCATGCATGCATGCATGCATGCATGCATGCATGCATGCATGCATGCATGCATGCATGCGTCACGTGACGCATGCATGCATGCATGCATGCATGCATGCATGCATGCATGCATGCATGCATGCATGCATGCG
Consider B3, for which the binding result in series [3] and in series [4] was “binds” in each case.
